{"source": "patent US20090203598A1", "biological_target": "ShB-IR (Shaker ShB variant with inactivation removed) (UniProt P08510)", "sequence (P08510 other isoform, or with tags, fused parts or gaps mutant)": "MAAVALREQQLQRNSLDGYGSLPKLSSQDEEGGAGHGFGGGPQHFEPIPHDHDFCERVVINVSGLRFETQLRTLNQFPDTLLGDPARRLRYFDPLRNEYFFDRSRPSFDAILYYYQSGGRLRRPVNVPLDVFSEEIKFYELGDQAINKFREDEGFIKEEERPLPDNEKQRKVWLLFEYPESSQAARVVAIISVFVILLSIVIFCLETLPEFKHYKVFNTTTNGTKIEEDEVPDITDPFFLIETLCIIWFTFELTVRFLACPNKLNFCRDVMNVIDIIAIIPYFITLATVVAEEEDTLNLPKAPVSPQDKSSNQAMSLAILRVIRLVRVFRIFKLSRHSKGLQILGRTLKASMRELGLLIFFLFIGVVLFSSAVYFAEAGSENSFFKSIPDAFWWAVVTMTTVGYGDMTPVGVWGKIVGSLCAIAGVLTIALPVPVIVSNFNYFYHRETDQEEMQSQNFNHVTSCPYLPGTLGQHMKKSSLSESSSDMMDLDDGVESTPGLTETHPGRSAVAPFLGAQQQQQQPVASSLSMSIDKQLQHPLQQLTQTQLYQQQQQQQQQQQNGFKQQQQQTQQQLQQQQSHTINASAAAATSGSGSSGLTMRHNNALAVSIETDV", "assay": "cell-based or functional assay", "data": [{"substance": "recombinant charybdotoxin (ChTx) (from UniProt P13487 23-59) (peptide)", "values": [{"measurement": "inhibition of ShB-IR currents by 24 nM recombinant ChTx, two-electrode voltage clamp", "result": 15, "unit": "%"}]}]}
